Measurements from patent US20220363763A1 (ABL BIO, published 2022).
Positions count from the first letter of the chain named.

T1: human LAG3 (construct not stated) (human, UniProt P18627 23-450, limits assumed)
T1 construct: also called human LAG3 protein; antigen
T1 sequence (looked up): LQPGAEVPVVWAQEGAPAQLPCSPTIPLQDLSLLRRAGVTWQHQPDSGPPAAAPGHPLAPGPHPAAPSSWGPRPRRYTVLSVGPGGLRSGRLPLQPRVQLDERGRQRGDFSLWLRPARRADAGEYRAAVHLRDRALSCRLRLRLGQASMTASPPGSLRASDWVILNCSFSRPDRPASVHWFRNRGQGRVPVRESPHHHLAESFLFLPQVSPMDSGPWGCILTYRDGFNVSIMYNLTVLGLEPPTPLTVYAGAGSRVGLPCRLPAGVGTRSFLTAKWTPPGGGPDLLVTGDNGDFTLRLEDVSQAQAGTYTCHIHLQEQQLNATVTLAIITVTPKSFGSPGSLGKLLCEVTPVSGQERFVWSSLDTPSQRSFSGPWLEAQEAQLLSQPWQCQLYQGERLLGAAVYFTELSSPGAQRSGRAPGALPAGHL

T2: recombinant his-tag human LAG3-ECD protein (human, UniProt P18627 23-450)
T2 construct: extracellular domain; not shown: his tag
T2 sequence (looked up): T1 sequence (looked up)

B1: 147H-11 (antibody, V domains shown)
VH: EVQLVQSGAEVKKPGASVKVSCKASGYTFTNYWLGWVRQAPGQGLEWMGDIYPGGDYINYNEKFKGKATLTADTSISTAYMELSRLRSDDTAVYYCARPNLPGDYWGQGTTVTVSS
VL: DIVMTQSPLSLPVTPGEPASISCRSSKSLLHSNGITYLYWYLQKPGQSPQLLIYQVSNLASGVPDRFSGSGSGTDFTLKISRVEAEDVGVYYCAQNLELPWTFGGGTKVEIK
notes: Common light chain; human gamma 1 / kappa constant domains
B2: 147H-1 (antibody, V domains shown)
VH: B1 VH with E1Q, K67R, A68V, L70M, A72R
VL: B1 VL
B3: 147H-2 (antibody, V domains shown)
VH: B1 VH with E1Q, K67R, A68V, L70M
VL: B1 VL
notes: as for B1
B4: 147H-3 (antibody, V domains shown)
VH: B1 VH with E1Q, K67R, A68V
VL: B1 VL
notes: as for B1
B5: 147H-4 (antibody, V domains shown)
VH: B1 VH with E1Q
VL: B1 VL
notes: as for B1
B6: 147H-5 (antibody, V domains shown)
VH: B1 VH with E1Q, M48I
VL: B1 VL
notes: as for B1
B7: 147H-8 (antibody, V domains shown)
VH: B1 VH with K67R, A68V, L70M, A72R
VL: B1 VL
notes: as for B1
B8: 147H-9 (antibody, V domains shown)
VH: B1 VH with K67R, A68V, L70M
VL: B1 VL
notes: as for B1
B9: 147H-10 (antibody, V domains shown)
VH: B1 VH with K67R, A68V
VL: B1 VL
notes: as for B1
B10: 147H-12 (antibody, V domains shown)
VH: B1 VH with M48I
VL: B1 VL
notes: as for B1
B11: 147H 3421 (antibody, V domains shown)
VH: B1 VH with V37I, R38K, M48I, G103K, Y105H
VL: B1 VL with G34A
B12: 147H 3508 (antibody, V domains shown)
VH: B1 VH with V37I, R38K, M48I, G103K, Y105H
VL: B1 VL with G34A, A94G
B13: 147H 3549 (antibody, V domains shown)
VH: B1 VH with V37I, R38K, M48I, G103K, Y105H
VL: B1 VL with G34A, N96Y, L99E
B14: 147H 3550 (antibody, V domains shown)
VH: B1 VH with V37I, R38K, M48I, G103K, Y105H
VL: B1 VL with G34A, N96Y
B15: 147H 3663 (antibody, V domains shown)
VH: B1 VH with T30E, V37I, R38K, M48I, N59V
VL: B1 VL with G34A, S61R
B16: 147H 3669 (antibody, V domains shown)
VH: B1 VH with T28L, V37I, R38K, M48I, N59V
VL: B1 VL with G34A
B17: 147H 3790 (antibody, V domains shown)
VH: B1 VH with V37I, R38K, M48I, G103K, Y105H
VL: B1 VL with G34A, S61T
B18: 147H 3791 (antibody, V domains shown)
VH: B1 VH with V37I, R38K, M48I, N59V
VL: B1 VL with G34A, A94G
B19: 147H 3792 (antibody, V domains shown)
VH: B1 VH with V37I, R38K, M48I, N59V
VL: B1 VL with G34A, N96Y
B20: 147H 3793 (antibody, V domains shown)
VH: B1 VH with T28L, V37I, R38K, M48I, N59V
VL: B1 VL with G34A, A94G
B21: 147H 3794 (antibody, V domains shown)
VH: B1 VH with T28L, V37I, R38K, M48I, N59V
VL: B1 VL with G34A, N96Y
B22: 147H 3808 (antibody, V domains shown)
VH: B1 VH with V37I, R38K, M48I, N59V, G103K, Y105H
VL: B1 VL with G34A, A94G, N96Y
B23: 147H 3809 (antibody, V domains shown)
VH: B1 VH with T28L, V37I, R38K, M48I, N59V, G103K, Y105H
VL: B1 VL with G34A, N96Y
B24: 147H 3811 (antibody, V domains shown)
VH: B1 VH with T28L, V37I, R38K, M48I, N59V, G103K, Y105H
VL: B1 VL with G34A, S61T, A94G, N96Y
B25: Hu1210-40 (antibody, V domains shown)
VH: EVQLVESGGGLVQPGGSLRLSCAASGFTFSSYDMSWVRQAPGKSLEWVATISEGGGYIYYSDSVKGRFTISRDNAKNSLYLQMNSLRDEDTAVYICAREFGKRYALDYWGQGTTVTVSS
VL: DIQMTQSPSSLSASVGDRVTITCKASQDVTPAVAWYQQKPGKAPKLLIYSTSSRYTGVPSRFSGSGSGTDFTFTISSLQPEDIATYYCQQHYTTPLTFGQGTKLEIK
notes: Hu1210 VH.4c x Vk.1; human gamma 1 / kappa constant domains
B26: Hu1210-42 (antibody, V domains shown)
VH: B25 VH with E53D, G54V
VL: B25 VL
notes: Hu1210 VH.4e x Vk.1; human gamma 1 / kappa constant domains
B27: Hu1210-28 (antibody, V domains shown)
VH: B25 VH with S44G, E53D, D88A, T114L
VL: DIQMTQSPSSLSASVGDRVTITCKASQDVTPAVAWYQQKPGKAPKLLIYSTSSRYTGVPDRFTGSGSGTDFTLTISSLQPEDFATYYCQQHYTTPLTFGQGTKLEIKR
notes: Hu1210 VH.5a x Vk.2a; human gamma 1 / kappa constant domains
B28: NLAG3-HDB169-S128 (antibody, human IgG1, V domains shown)
VH: QVQLVQSGAEVKKPGSSVKVSCKASGGTFSSYAISWVRQAPGQGLEWMGGIIPIFGTANYAQKFQGRVTITADESTSTAYMELSSLRSEDTAVYYCARDAGPVGYYGMDVWGQGTMVTVSS
VL: AIQMTQSPSSLSASVGDRVTITCRASQGISSWLAWYQQKPGKAPKLLIYAASSLQSGVPSRFSGSGSGTDFTLTISRLQPEDFATYYCQQAKSFPLTFGGGTKVEIKR
notes: Short label tied by its unique suffix
B29: NLAG3-HDB323-S20 (antibody, human IgG1, V domains shown)
VH: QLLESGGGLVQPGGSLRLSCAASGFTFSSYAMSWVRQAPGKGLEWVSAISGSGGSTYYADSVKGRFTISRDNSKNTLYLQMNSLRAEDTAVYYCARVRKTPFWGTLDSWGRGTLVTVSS
VL: VIWMTQSPSSLSASVGDRVTITCRASQGVSSYLAWYQQKPGKAPKLLIYAASSLQSGVPSRFSGSGSGTEFTLTISSLQPEDFATYYCQQTNWFPLTFGPGTRLEIKR
notes: Human IgG1 / kappa (pFUSEss-CHIg-hG1, pFUSE2ss-CLIg-hk); Short label tied by its unique suffix

Molecular target: T1, human LAG3 (construct not stated)
Experiment: BLI Octet Red 96, affinity ranking

| Binder | Kd [nM] | koff [s⁻¹] | kon [M⁻¹ s⁻¹] |
| --- | --- | --- | --- |
| B1 | 42.2 | 0.00451 | 107000 |
| B2 | 35.4 | 0.00386 | 109000 |
| B3 | 31.6 | 0.00314 | 99300 |
| B4 | 36.5 | 0.00338 | 92500 |
| B5 | 39.8 | 0.00343 | 86200 |
| B6 | 31.3 | 0.003 | 95800 |
| B7 | 32.3 | 0.00533 | 165000 |
| B8 | 66.4 | 0.00448 | 67400 |
| B9 | 82.3 | 0.00404 | 49100 |
| B10 | 55.2 | 0.00344 | 62300 |

Molecular target: T2, recombinant his-tag human LAG3-ECD …
Experiment: SPR Biacore T200, capture method as Example 2.7

| Binder | Kd [nM] | koff [s⁻¹] | kon [M⁻¹ s⁻¹] |
| --- | --- | --- | --- |
| B11 | 8.1 | 0.012 | 1.4e+06 |
| B12 | 1.4 | 0.0042 | 2.9e+06 |
| B13 | 0.92 | 0.0068 | 7.4e+06 |
| B14 | 0.98 | 0.0085 | 8.7e+06 |
| B15 | 6.8 | 0.0054 | 790000 |
| B16 | 8.8 | 0.0063 | 720000 |
| B17 | 5.9 | 0.0045 | 770000 |
| B18 | 1.2 | 0.0025 | 2.1e+06 |
| B19 | 0.59 | 0.0029 | 4.9e+06 |
| B20 | 1.3 | 0.0023 | 1.8e+06 |
| B21 | 0.72 | 0.0027 | 3.7e+06 |
| B22 | 0.75 | 0.0032 | 4.3e+06 |
| B23 | 0.47 | 0.002 | 4.3e+06 |
| B24 | 0.59 | 0.0029 | 4.9e+06 |

Molecular target: T3, human PD-L1-his taq protein (human, UniProt Q9NZQ7 19-239, limits assumed)
T3 construct: also called recombinant PD-L1 protein; recombinant human PD-L1; not shown: his tag
T3 sequence (Q9NZQ7 19-239 limits assumed): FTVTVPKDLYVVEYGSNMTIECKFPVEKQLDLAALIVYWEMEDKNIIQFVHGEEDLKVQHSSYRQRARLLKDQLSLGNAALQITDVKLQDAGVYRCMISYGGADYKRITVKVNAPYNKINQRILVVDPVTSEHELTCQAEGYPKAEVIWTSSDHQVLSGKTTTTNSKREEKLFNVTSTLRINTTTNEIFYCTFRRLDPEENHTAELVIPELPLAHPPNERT
Experiment: SPR Biacore T200, antibody captured, PD-L1-his injected
Description: The binding of the humanized antibodies to recombinant PD-L1 protein (human PD-L1-his taq) was tested by BIACORE™ using a capture method. The HL1210-3 mouse mAb were captured using anti-mouse Fc antibody coated on a CM5 chip. A series dilution of human PD-L1-his taq protein was injected over captured antibody for 3 mins at a flow rate of […]. The antigen was allowed to dissociate for 900 s. All the experiments were carried out on a Biacore T200.

| Binder | Kd [nM] | koff [s⁻¹] | kon [M⁻¹ s⁻¹] |
| --- | --- | --- | --- |
| B25 | 1.49 | 0.000131 | 87700 |
| B26 | 0.867 | 7.53e-05 | 86800 |
| B27 | 0.838 | 0.000108 | 129000 |

Molecular target: T2, recombinant his-tag human LAG3-ECD …
Experiment: SPR Biacore T200, antibody captured by anti-human Fc, LAG3-ECD-his injected
Description: The binding of the S20, S24, S27, S31, S87, S119, S120, S128, S136, S161 and T99 antibodies to recombinant his-tag human LAG3-ECD protein was examined by Biacore T200 using a capture method. Anti-LAG3 antibodies were captured using anti-human Fc antibody. The anti-human Fc antibody was coated on chip. Serial concentrations of his-tag human LAG3-ECD protein (0-4 nM) were injected over capture antibodies at the flow rate of 30 μl/min. The dissociation phase was 900 s or 550 s. The Biacore results for the anti-LAG3 antibodies have shown that these anti-LAG3 antibodies are high affinity binder to human LAG3.

| Binder | Kd [nM] | koff [s⁻¹] | kon [M⁻¹ s⁻¹] |
| --- | --- | --- | --- |
| B28 | 0.815 | 0.000817 | 1e+06 |
| B29 | 0.0443 | 7.33e-06 | 165000 |
